# From article PMC11103505, “AXL-specific single domain antibodies show diagnostic potential and anti-tumor activity in Acute Myeloid Leukemia” (Theranostics, 2024)
# B1: recombinant mouse AXL protein (receptor, UniProt Q00993 19-445, looked up)
# chain: AHKDTQTEAGSPFVGNPGNITGARGLTGTLRCELQVQGEPPEVVWLRDGQILELADNTQTQVPLGEDWQDEWKVVSQLRISALQLSDAGEYQCMVHLEGRTFVSQPGFVGLEGLPYFLEEPEDKAVPANTPFNLSCQAQGPPEPVTLLWLQDAVPLAPVTGHSSQHSLQTPGLNKTSSFSCEAHNAKGVTTSRTATITVLPQRPHHLHVVSRQPTELEVAWTPGLSGIYPLTHCNLQAVLSDDGVGIWLGKSDPPEDPLTLQVSVPPHQLRLEKLLPHTPYHIRISCSSSQGPSPWTHWLPVETTEGVPLGPPENVSAMRNGSQVLVRWQEPRVPLQGTLLGYRLAYRGQDTPEVLMDIGLTREVTLELRGDRPVANLTVSVTAYTSAGDGPWSLPVPLEPWRPGQGQPLHHLVSEPPPRAFSWPWW
# notes: AXL receptor tyrosine kinase, mouse; recombinant protein R&D Systems #854-AX; also called mouse Axl antigen; recombinant mouse antigen; source: bought: R&D Systems (#854-AX)
# Tests used:
# [1] = target: B1; assay: SPR; Biacore-T200; recombinant AXL protein immobilised on CM5 chip by amine coupling (EDC/NHS); sdAbs injected at ten concentrations from 1.9 to 500 nM; 25°C; HBS (20 mM HEPES pH 7.4, 150 mM NaCl, 3.4 mM EDTA, 0.005% Tween 20); 10 µL/min; 1:1 binding model; details: both partners purified
# [2] = target: T1, recombinant human AXL protein (Homo sapiens, UniProt P30530); assay: as above; details: both partners purified
# T1 construct: AXL receptor tyrosine kinase, human; recombinant protein R&D Systems #154-AL; also called hAXL; AXL - Homo sapiens; source: bought: R&D Systems (#154-AL)
# T1 sequence (P30530 26-451): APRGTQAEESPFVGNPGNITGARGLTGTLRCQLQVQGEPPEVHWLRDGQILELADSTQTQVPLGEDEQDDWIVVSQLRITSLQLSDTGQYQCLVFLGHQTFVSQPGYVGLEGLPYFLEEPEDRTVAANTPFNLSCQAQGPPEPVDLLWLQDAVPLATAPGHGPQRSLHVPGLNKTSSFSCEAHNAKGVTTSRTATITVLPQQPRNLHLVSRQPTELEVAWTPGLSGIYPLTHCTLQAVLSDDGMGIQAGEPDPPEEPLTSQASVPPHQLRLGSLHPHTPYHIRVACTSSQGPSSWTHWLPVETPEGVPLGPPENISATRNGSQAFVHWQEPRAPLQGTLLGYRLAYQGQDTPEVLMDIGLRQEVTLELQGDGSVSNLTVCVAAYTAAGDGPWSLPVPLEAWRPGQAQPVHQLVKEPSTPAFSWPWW
# [3] = target: T2, recombinant human AXL protein (human, UniProt P30530); assay: SPR; competition assay for blocking of hAXL and hGAS6; which partner was immobilised is not shown; details: both partners purified
# T2 construct: receptor tyrosine kinase AXL, human, recombinant protein from R&D Systems; also called hAXL; source: bought: R&D Systems
# T2 sequence (P30530 26-451): as above
# [4] = target: T3, AXL on AXL-overexpressing murine C1498 AML cells (Mus musculus, UniProt Q00993); assay: flow cytometry on cells; sdAb20 or sdAb20-Fc on AXL-expressing human and murine cancer cell lines, compared with the irrelevant control R3B23 or R3B23-Fc; read-out MFI; details: one partner purified
# T3 construct: receptor tyrosine kinase AXL overexpressed in murine C1498 cells by lentiviral transduction; also called AXL^high C1498; source: C1498 cells, lentivirally transduced and positively selected, on cells
# [5] = target: T4, recombinant mouse AXL protein (Mus musculus, UniProt Q00993); assay: SPR; Biacore T200; recombinant AXL immobilised on CM5 chip by amine coupling; seven serial dilutions of sdAb flowed over; 25 °C; HBS (20 mM HEPES pH 7.4, 150 mM NaCl, 3.4 mM EDTA, 0.005% Tween 20); 1:1 binding model; details: both partners purified
# T4 construct: receptor tyrosine kinase AXL, mouse, recombinant protein from R&D Systems; also called recombinant mouse antigen; source: bought: R&D Systems
# [111In]In-DTPA-sdAb20-Fc = target: T5, [111In]In-DTPA-sdAb20-Fc (alpaca (Vicugna pacos)); assay: ELISA; radio-ELISA: recombinant mouse AXL coated on Lockwell C8 Maxisorp plates; serial dilution of [111In]In-DTPA-sdAb-Fc in PBS + 1% FBS; bound radioactivity by gamma counter; specific binding = total minus non-specific binding; details: both partners purified
# T5 construct: as the VHH of Dm1; the His6 tag of sdAb20 was replaced with the mIgG2a-Fc region; about 80 kDa; also called [111In] anti-AXL sdAb20-Fc; 111In-labeled sdAb20-Fc; source: DTPA-conjugated and 111In-labelled, purified (SEC, NAP-5); not shown: Fc (mouse IgG2a), C-terminal, kept
Binder,binding result [1],binding result [2],other results
"anti-AXL single domain antibody sdAb25 (VHH, source: E. coli WK6, periplasmic expression, purified (IMAC, SEC)) VHH: QVQLQESGGGLVQPGGSLRLSCVASGSIFSIYAMGWYRQAPGKQRELVAGISSGGSTNYADSVKGRFTISRDNAKNTVYLQMNSLKPEDTAVYYCNYDLVEAVTGEYDYWGQGTQVTVSS",binds,binds,–
"anti-AXL single domain antibody sdAb12 (VHH, source: E. coli WK6, periplasmic expression, purified (IMAC, SEC)) VHH: QVQLQESGGGLVKPGGSLRLSCVASGSIFSIYAMGWYRQAPGKQRELVAGISSGGSTNYADSVKGRFTISRDNAKNTVYLQMNSLKPEDTAVYYCNYDLVEAVTGEYDYWGQGTQVTVSS",binds,binds,–
"anti-AXL single domain antibody sdAb4 (VHH, source: E. coli WK6, periplasmic expression, purified (IMAC, SEC)) VHH: QVQLQESGGGLVQPGGSLRLSCVASGSIFSIYAMGWYRQAPGKQRELVAGISSGGSTNYADSVKGRFTISRDNAKNTVYLQMNSLKPEDTAVYYCNYDLVKAVTGEYDYWGQGTQVTVSS",binds,binds,–
"anti-AXL single domain antibody sdAb19 (VHH, source: E. coli WK6, periplasmic expression, purified (IMAC, SEC)) VHH: QVQLQESGGGMVQPGGSLRLSCAASGFTFTSYDMTWLRQTPGKGPEWVSTISTGGLRTYYGNSVKGRFIISRDNTKNTLYLQMNSLKPEDTALYYCARGPFTVADPRRGQGTQVTVSS",binds,–,–
"anti-AXL single domain antibody sdAb20 (VHH, alpaca-derived; Re-cloned into pHEN6, which encodes the C-terminal His6 tag; also called lead compound; monovalent sdAb20; source: E. coli WK6, periplasmic expression, purified (IMAC, SEC); not shown: His6, C-terminal, kept) VHH: QVQLQESGGGLVRPGGSLRLSCAASGFTFTSYDMTWLRQTPGKGPEWVSTISTGGLRTYYGNSVKGRFIISRDNTKNTLYLQMNSLKPEDTALYYCARGPFTVADPRRGQGTQVTVSS",–,–,IC50 [3]: 119 nM; binding result [4]: binds; binding result [5]: binds
"anti-AXL single domain antibody sdAb20 (VHH, re-cloned into pHEN6 (C-terminal His6 tag), monomeric format; source: E. coli WK6, periplasmic expression, purified (IMAC, SEC)) VHH: QVQLQESGGGLVRPGGSLRLSCAASGFTFTSYDMTWLRQTPGKGPEWVSTISTGGLRTYYGNSVKGRFIISRDNTKNTLYLQMNSLKPEDTALYYCARGPFTVADPRRGQGTQVTVSS",binds,–,–
B1,–,–,Kd ([111In]In-DTPA-sdAb20-Fc): 11.9 nM
